The labels stand for the following.
B1: HaMut1D (V69A, Q74P, N88D, C125A) (ligand)
chain: APTSSSTKKTQLQLEHLLLDLQMILNGINNYKNPKLTRMLTFKFYMPKKATELKHLQCLEEELKPLEEALNLAPSKNFHLRPRDLISDINVIVLELKGSETTFMCEYADETATIVEFLNRWITFAQSIISTLT
notes: IL-2 mutein without Fc; not shown: C-terminal FLAG and poly-His tag
B2: HaMut8D (K35R, K48E, E68D, N88D, C125A) (ligand)
chain: B1 chain with K35R, K48E, E68D, A69V, P74Q
notes: not shown: C-terminal FLAG and poly-His tag
B3: HaMut5D (K48E, V69A, Q74P, N88D, C125A) (ligand)
chain: B1 chain with K48E
notes: as for B2
B4: HaMut3D (K35R, V69A, Q74P, N88D, C125A) (ligand)
chain: B1 chain with K35R
notes: as for B2
B5: HaMut2D (N30S, V69A, Q74P, N88D, C125A) (ligand)
chain: B1 chain with N30S
notes: as for B2
B6: HaMut6D (E68D, V69A, Q74P, N88D, C125A) (ligand)
chain: B1 chain with E68D
notes: as for B2
B7: HaMut4D (T37A, V69A, Q74P, N88D, C125A) (ligand)
chain: B1 chain with T37A
notes: as for B2
B8: HaMut7D (N71R, V69A, Q74P, N88D, C125A) (ligand)
chain: B1 chain with N71R
notes: as for B2

Numbering of substitutions follows the chain as printed. Names and notes keep the numbering of the source.

The target of this assay is T1, CD25 (IL-2Rα) on the surface of activated T cells (UniProt P01589 22-272, limits assumed).
T1 construct: whole, on cells; also called cell surface CD25
T1 sequence (looked up): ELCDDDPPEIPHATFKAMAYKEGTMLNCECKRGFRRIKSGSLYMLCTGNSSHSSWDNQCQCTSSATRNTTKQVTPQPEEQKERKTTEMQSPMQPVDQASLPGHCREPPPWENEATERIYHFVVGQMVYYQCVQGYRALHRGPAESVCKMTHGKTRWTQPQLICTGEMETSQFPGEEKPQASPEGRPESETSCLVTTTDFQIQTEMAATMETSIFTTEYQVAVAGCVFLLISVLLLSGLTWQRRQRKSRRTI
Briefly: flow cytometry, binding to CD25 on the surface of activated T cells. A general note: A flow cytometer gives signals particle by particle.
In general, Kd refers to the free concentration of one partner at which half of the binding sites on the other are occupied at equilibrium, for simple one-to-one binding. Read a high Kd as weaker binding. Regarding B1, the Kd was roughly 2 nM.

Regarding B2, the binding result is given as “binds”. B3: the binding result was “binds”. Still for that read-out and setting: to B4 belongs “binds”; to B5, “binds”; to B6, “binds”.

Take B7: the binding result was “binds”.

B8 came in with a Kd of roughly 0.2 nM.
